Source: publication PMC9878632 (ACS Omega, 2023)

Assays:
[1] = molecular target: the molecule itself; assay: AUC
[2] = molecular target: the molecule itself; assay: crystal structure

B1: PYCR1 T171M variant (human Δ1-pyrroline-5-carboxylate reductase 1, Thr171Met) (enzyme, UniProt P32322 1-300, looked up)
chain: MSVGFIGAGQLAFALAKGFTAAGVLAAHKIMASSPDMDLATVSALRKMGVKLTPHNKETVQHSDVLFLAVKPHIIPFILDEIGADIEDRHIVVSCAAGVTISSIEKKLSAFRPAPRVIRCMTNTPVVVREGATVYATGTHAQVEDGRLMEQLLSSVGFCTEVEEDLIDAVMGLSGSGPAYAFTALDALADGGVKMGLPRRLAVRLGAQALLGAAKMLLHSEQHPGQLKDNVSSPGGATIHALHVLESGGFRSLLINAVEASCIRTRELQSMADQEQVSPAAIKKTILDKVKLDSPAGTAL
stoichiometry N [1]: 2 | stoichiometry N [2]: 10
